Experimental data taken from PMC9352680, “A comprehensive thermodynamic model for RNA binding by the Saccharomyces cerevisiae Pumilio protein PUF4”.

T1: PUF4 RNA-binding domain (Saccharomyces cerevisiae, UniProt P25339 537-888)
T1 sequence: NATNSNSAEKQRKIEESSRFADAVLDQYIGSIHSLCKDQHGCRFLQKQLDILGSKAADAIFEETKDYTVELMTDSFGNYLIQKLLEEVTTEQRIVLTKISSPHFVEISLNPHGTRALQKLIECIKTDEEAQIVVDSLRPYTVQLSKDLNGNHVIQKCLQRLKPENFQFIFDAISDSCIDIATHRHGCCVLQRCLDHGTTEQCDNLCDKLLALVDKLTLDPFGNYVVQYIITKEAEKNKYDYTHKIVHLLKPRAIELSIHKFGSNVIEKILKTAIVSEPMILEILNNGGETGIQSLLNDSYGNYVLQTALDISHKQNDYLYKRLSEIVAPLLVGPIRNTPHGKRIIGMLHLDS


Target: T1, PUF4 RNA-binding domain
Test: Mg; RNA-MaP; 20 mM Na-HEPES pH 7.4, 30 mM KOAc, 0.75 mM MgCl2, 0.1% Tween-20, 5% glycerol, 0.1 mg/mL BSA, 2 mM DTT; 25 C; 0.0125-409.6 nM protein
Settings: tags: N-His6-TEV cleaved; C-SNAP kept, Cy3B-labelled; label: tethered on chip by stalled RNA polymerase

| Binder | Kd |
| --- | --- |
| Id_ii_S4_P4E.3_K4.2_C4.2_[T-1G]_H4.2_A4.1_F4.1_T4.2_[G10T]_[T11C] (ssRNA) RNA: UUUGACAACUGAUCGUUCUUUCUCGUAUAUAUUAUCUUCUUUCUCGAUCAGUUGUCUUU | 13.1 nM |
| Id_ii_S4_P4E.3_K4.2_C4.2_[C-2A]_[T-1A]_H4.2_A4.1_F4.1_T4.2_[G10C]_[T11G] (ssRNA) RNA: UUUGACAACUGAUCGUUCUUUCUAAUAUAUAUUACGUUCUUUCUCGAUCAGUUGUCUUU | 189 nM |
| Id_ii_S4_P4E.3_K4.2_C4.2_H4.2_A4.1_F4.1_T4.2_[G10A] (ssRNA) RNA: UUUGACAACUGAUCGUUCUUUCUCUUAUAUAUUAAUUUCUUUCUCGAUCAGUUGUCUUU | 10.8 nM |
| Id_ii_S4_P4E.3_K4.2_C4.2_[T-1C]_H4.2_A4.1_F4.1_T4.2_[G10C]_[T11G] (ssRNA) RNA: UUUGACAACUGAUCGUUCUUUCUCCUAUAUAUUACGUUCUUUCUCGAUCAGUUGUCUUU | 9.21 nM |
| Id_ii_S4_P4E.3_K4.2_C4.2_[T-1G]_H4.2_A4.1_F4.1_T4.2_[G10A] (ssRNA) RNA: UUUGACAACUGAUCGUUCUUUCUCGUAUAUAUUAAUUUCUUUCUCGAUCAGUUGUCUUU | 12.4 nM |
| Id_ii_S4_P4E.3_K4.2_C4.2_H4.2_A4.1_F4.1_T4.2_[G10A]_[T11C] (ssRNA) RNA: UUUGACAACUGAUCGUUCUUUCUCUUAUAUAUUAACUUCUUUCUCGAUCAGUUGUCUUU | 15.9 nM |
| Id_ii_S4_P4E.3_K4.2_C4.2_H4.2_A4.1_F4.1_T4.2_[G10T]_[T11C] (ssRNA) RNA: UUUGACAACUGAUCGUUCUUUCUCUUAUAUAUUAUCUUCUUUCUCGAUCAGUUGUCUUU | 6.46 nM |
| Id_ii_S4_P4E.4_K4.3_C4.2_[C-2T]_[T-1A]_H4.3_A4.1_F4.1_T4.2 (ssRNA) RNA: UUUGACAACUGAUCGUUCUUUCUUAACACUAUUAGUUUCUUUCUCGAUCAGUUGUCUUU | > 2300 nM |
| Id_ii_S4_P4E.4_K4.3_C4.2_[C-2A]_H4.3_A4.1_F4.1_T4.2_[G10C]_[T11C] (ssRNA) RNA: UUUGACAACUGAUCGUUCUUUCUAUACACUAUUACCUUCUUUCUCGAUCAGUUGUCUUU | 14.9 nM |
| Id_ii_S4_P4E.3_K4.2_C4.2_H4.2_A4.1_F4.1_T4.2_[T11C] (ssRNA) RNA: UUUGACAACUGAUCGUUCUUUCUCUUAUAUAUUAGCUUCUUUCUCGAUCAGUUGUCUUU | 5.07 nM |
| Id_ii_S4_P4E.3_K4.2_C4.2_[C-2T]_[T-1A]_H4.2_A4.1_F4.1_T4.2_[G10A]_[T11A] (ssRNA) RNA: UUUGACAACUGAUCGUUCUUUCUUAUAUAUAUUAAAUUCUUUCUCGAUCAGUUGUCUUU | 42 nM |
| Id_ii_S4_P4E.4_K4.3_C4.2_[C-2T]_[T-1C]_H4.3_A4.1_F4.1_T4.2_[G10T]_[T11C] (ssRNA) RNA: UUUGACAACUGAUCGUUCUUUCUUCACACUAUUAUCUUCUUUCUCGAUCAGUUGUCUUU | > 2300 nM |
| Id_ii_S4_P4E.3_K4.2_C4.2_[C-2T]_H4.2_A4.1_F4.1_T4.2_[G10C]_[T11C] (ssRNA) RNA: UUUGACAACUGAUCGUUCUUUCUUUUAUAUAUUACCUUCUUUCUCGAUCAGUUGUCUUU | 9.36 nM |
| Id_ii_S4_P4E.4_K4.3_C4.2_[C-2T]_[T-1C]_H4.3_A4.1_F4.1_T4.2_[G10A]_[T11C] (ssRNA) RNA: UUUGACAACUGAUCGUUCUUUCUUCACACUAUUAACUUCUUUCUCGAUCAGUUGUCUUU | 2110 nM |
| Id_ii_S4_P4E.4_K4.3_C4.2_[C-2A]_[T-1C]_H4.3_A4.1_F4.1_T4.2_[G10C] (ssRNA) RNA: UUUGACAACUGAUCGUUCUUUCUACACACUAUUACUUUCUUUCUCGAUCAGUUGUCUUU | > 2300 nM |
| Id_ii_S4_P4E.3_K4.2_C4.2_[C-2A]_H4.2_A4.1_F4.1_T4.2_[G10C]_[T11A] (ssRNA) RNA: UUUGACAACUGAUCGUUCUUUCUAUUAUAUAUUACAUUCUUUCUCGAUCAGUUGUCUUU | 12.2 nM |
| Id_ii_S4_P4E.3_K4.2_C4.2_[T-1G]_H4.2_A4.1_F4.1_T4.2 (ssRNA) RNA: UUUGACAACUGAUCGUUCUUUCUCGUAUAUAUUAGUUUCUUUCUCGAUCAGUUGUCUUU | 8.91 nM |
| Id_ii_S4_P4E.3_K4.2_C4.2_[C-2A]_[T-1A]_H4.2_A4.1_F4.1_T4.2_[G10T]_[T11C] (ssRNA) RNA: UUUGACAACUGAUCGUUCUUUCUAAUAUAUAUUAUCUUCUUUCUCGAUCAGUUGUCUUU | 39.7 nM |
| Id_ii_S4_P4E.3_K4.2_C4.2_[C-2T]_H4.2_A4.1_F4.1_T4.2_[G10T]_[T11G] (ssRNA) RNA: UUUGACAACUGAUCGUUCUUUCUUUUAUAUAUUAUGUUCUUUCUCGAUCAGUUGUCUUU | 8.62 nM |
| Id_ii_S4_P4E.3_K4.2_C4.2_[C-2A]_[T-1C]_H4.2_A4.1_F4.1_T4.2_[G10T]_[T11C] (ssRNA) RNA: UUUGACAACUGAUCGUUCUUUCUACUAUAUAUUAUCUUCUUUCUCGAUCAGUUGUCUUU | 6.68 nM |
| Id_ii_S4_P4E.3_K4.2_C4.2_[C-2A]_[T-1C]_H4.2_A4.1_F4.1_T4.2_[G10T]_[T11A] (ssRNA) RNA: UUUGACAACUGAUCGUUCUUUCUACUAUAUAUUAUAUUCUUUCUCGAUCAGUUGUCUUU | 24.6 nM |
| Id_ii_S4_P4E.3_K4.2_C4.2_[C-2A]_[T-1A]_H4.2_A4.1_F4.1_T4.2_[G10C]_[T11C] (ssRNA) RNA: UUUGACAACUGAUCGUUCUUUCUAAUAUAUAUUACCUUCUUUCUCGAUCAGUUGUCUUU | 47.7 nM |
| UCUCUUUAUAUUCUUAUCUCUU (ssRNA) [Ib_S1_P5E.1_K5.1_C5.1_H5.1_[G2A]_A5.1_[A7C]_F5.1_T5.1] | 801 nM |
| UCUCUUUUUAUUCUUAUCUCUU (ssRNA) [Ib_S1_P5E.1_K5.1_C5.1_H5.1_[G2T]_A5.1_[A7C]_F5.1_T5.1] | > 2300 nM |
